Measurements from patent US7951356B1, “Tissue factor compositions and kits for coagulation and tumor treatment” (Board of Regents, The University of Texas System, priority 1997, dated 2011).

Legend:
[1] = test system: HT29 (human colorectal carcinoma) xenograft; assay: Tumor necrosis in HT29 xenografts 24 hours after treatment (Example XII); format: in vivo, mouse; conditions: 24 hours after intravenous injection; tumors 0.5 to 1.0 cm^3; FIG. 23
Method: For these studies, the inventors chose the HT29 (human colorectal carcinoma) xenograft tumor model. HT29 cells (10^7 cells/mouse) were subcutaneously injected into BALB/c nu/nu mice. Tumor dimensions were monitored and animals were treated when the tumor size was between 0.5 and 1.0 cm^3.
Animals were sacrificed 24 hours after treatment, perfused with saline and heparin and exsanguinated. Tumors and organs were collected, formalin fixed and histological sections were prepared. The average area of necrosis in sections of the tumors was quantified and calculated as a percentage of the total area of tumor on the section.

[2] = cited from earlier work
[3] = Toxicity to mice of tTF mutants and Factor VIIa given separately; format: in vivo
citrated mouse plasma = assay: In vitro coagulation assay: tTF constructs localized on A20 lymphoma cells via bispecific antibody B21-2/10H10; format: cell-based; conditions: for coagulation times compared with tTF219 and Factor VIIa at the same concentrations: addition of Factor VIIa at 1 nM or greater, FIG. 22; for coagulation-inducing activity once localized on A20 cells via B21-2/10H10, in words (compared with tTF219): plasma coagulation
Method: This assay was used to verify that tTF, various derivatives and mutants thereof, and immunoglobulin-tTF conjugates acquire coagulation inducing activity once localized at a cell surface. A20 lymphoma cells (I-A^d positive) (2×10^6 cells/ml, 50 μl) were incubated for 1 h at room temperature with a bispecific antibody (50 μg/ml, 25 μl) consisting of a Fab′ arm of the B21-2 antibody directed against I-A^d linked to a Fab′ arm of the 10H10 antibody directed against a non-inhibitory epitope on tTF. The cells were washed at room temperature and varying concentrations of tTF, derivatives or mutants thereof, or immunoglobulin-tTF conjugates were added for 1 hour at room temperature. The bispecific antibody captures the tTF or tTF linked to immunoglobulin, bringing it into close approximation to the cell surface, where coagulation can proceed.
The cells were washed again at room temperature, resuspended in 75 μl of PBS and warmed to 37° C. […] The time for the first fibrin strands to form was recorded. Clotting time was plotted against tTF concentration and curves compared with standard curves prepared using standard tTF219 preparations.

Factor VIIa: recombinant human Factor VIIa
necrosis in tumor sections, in words [1]: some necrosis | half-life in vivo [2]: approximately two

B1: tTF219 (G164A): amino acid 164 (Gly) of tTF219 replaced by Ala; SEQ ID NO:9 (protein)
chain: SGTTNTVAAYNLTWKSTNFKTILEWEPKPVNQVYTVQISTKSGDWKSKCFYTTDTECDLTDEIVKDVKQTYLARVFSYPAGNVESTGSAGEPLYENSPEFTPYLETNLGQPTIQSFEQVGTKVNVTVEDERTLVRRNNTFLSLRDVFGKDLIYTLYYWKSSSSAKKTAKTNTNEFLIDVDKGENYCFSVQAVIPSRTVNRKSTDSPVECMGQEKGEFRE
toxicity to mice [3]: practically non-toxic | coagulation times compared with tTF219 and Factor VIIa at the same concentrations (citrated mouse plasma): only marginally slower coagulation times | coagulation-inducing activity once localized on A20 cells via B21-2/10H10, in words (compared with tTF219) (citrated mouse plasma): Weak coagulation | necrosis in tumor sections, in words [1]: some necrosis

B2: tTF219 (W158R): tryptophan at amino acid 158 of tTF219 mutated to an arginine; SEQ ID NO:8 (protein)
chain: SGTTNTVAAYNLTWKSTNFKTILEWEPKPVNQVYTVQISTKSGDWKSKCFYTTDTECDLTDEIVKDVKQTYLARVFSYPAGNVESTGSAGEPLYENSPEFTPYLETNLGQPTIQSFEQVGTKVNVTVEDERTLVRRNNTFLSLRDVFGKDLIYTLYYRKSSSSGKKTAKTNTNEFLIDVDKGENYCFSVQAVIPSRTVNRKSTDSPVECMGQEKGEFRE
toxicity to mice [3]: practically non-toxic | coagulation times compared with tTF219 and Factor VIIa at the same concentrations (citrated mouse plasma): only marginally slower coagulation times | coagulation-inducing activity once localized on A20 cells via B21-2/10H10, in words (compared with tTF219) (citrated mouse plasma): Weak coagulation
